These results are taken from patent publication US7189832 (University of California, dated 2007).

The series deals with the molecule itself. The experiment in a line: EGS crosslinking of recombinant protein, SDS-PAGE, immunoblot. Background: Immunoblotting shows a protein as a band on a membrane.

B1: recombinant ΔN-IKK-γ (134-419) (other, not shown: small tags and cut ends)
chain: QMAEDKASVKAQVTSLLGELQESQSRLEAATKECQALEGRARAASEQARQLESEREALQQQHSVQVDQLRMQGQSVEAALRMERQAASEEKRKLAQLQVAYHQLFQEYDNHIKSSVVGSERKRGMQLEDLKQQLQQAEEALVAKQEVIDKLKEEAEQHKIVMETVPVLKAQADIYKADFQAERQAREKLAEKKELLQEQLEQLQREYSKLKASCQESARIEDMRKRHVEVSQAPLPPAPAYLSSPLALPSQRRSPPEEPPDFCCPKCQYQAPDMDTLQIHVMECIE
notes: also called N-terminal truncation
Regarding B1, the binding result was “binds”.

B2: recombinant ΔC-IKK-γ (1-300) (other, not shown: small tags and cut ends)
chain: MNRHLWKSQLCEMVQPSGGPAADQDVLGEESPLGKPAMLHLPSEQGAPETLQRCLEENQELRDAIRQSNQILRERCEELLHFQASQREEKEFLMCKFQEARKLVERLGLEKLDLKRQKEQALREVEHLKRCQQQMAEDKASVKAQVTSLLGELQESQSRLEAATKECQALEGRARAASEQARQLESEREALQQQHSVQVDQLRMQGQSVEAALRMERQAASEEKRKLAQLQVAYHQLFQEYDNHIKSSVVGSERKRGMQLEDLKQQLQQAEEALVAKQEVIDKLKEEAEQHKIVMETVPV
notes: also called C-terminal truncation
Take B2: the binding result is “binds”.
